The results in this text go back to article PMC7327521.

The assay has as its target (pY1-CTD)2, FAM-labelled tyrosine-phosphorylated CTD diheptad. The assay can be described thus: fluorescence polarisation. (In general: Fluorescence polarisation rises when a labelled molecule tumbles more slowly, as on binding a larger partner.)

As a reminder, the Kd is a measure of binding affinity in units of concentration. A high value points to a looser complex.

With “Spt6-tSH2 R1281E/S1284A/R1285E (from UniProt Q6FLB1 1250-1444) (domain or fragment)”, the Kd turned out to be 48.3 µM. That is a double-digit micromolar value.
